# Values of other authors in article PMC9506339.
# Read-outs that look alike come from different tables or passages of the source.
# Assays:
# [1] = biological target: vitamin D-binding protein (UniProt P02774)
# [2] = biological target: vitamin D-binding protein (UniProt P02774); remark: listed apart in the source
# UniProt P02774, sequence (P02774 17-474): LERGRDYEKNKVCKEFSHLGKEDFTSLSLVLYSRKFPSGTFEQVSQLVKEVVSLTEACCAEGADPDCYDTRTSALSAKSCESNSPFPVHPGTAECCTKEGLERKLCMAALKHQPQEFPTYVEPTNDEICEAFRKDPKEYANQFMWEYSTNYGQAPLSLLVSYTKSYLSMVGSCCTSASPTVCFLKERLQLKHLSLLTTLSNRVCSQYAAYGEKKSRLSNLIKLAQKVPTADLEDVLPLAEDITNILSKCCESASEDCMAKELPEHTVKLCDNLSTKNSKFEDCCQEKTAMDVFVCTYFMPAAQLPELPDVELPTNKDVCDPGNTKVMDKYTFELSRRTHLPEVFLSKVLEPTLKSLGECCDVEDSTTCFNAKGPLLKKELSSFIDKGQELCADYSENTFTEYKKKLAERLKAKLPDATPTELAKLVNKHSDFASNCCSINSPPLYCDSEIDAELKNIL
Kd [1] [nM],Kd [2] [nM],Substance
110,–,cubilin (from UniProt O60494)
–,120,megalin (from UniProt P98164)
